Experiment [1] addresses JRFL APA DEG.
Experiment [2] deals with JRFL APA.

The record followed here is patent publication US20160271244A1.

“And” between values parts separate entries of the source, which are not always exact repeats. Identical values can stand only once.

For orientation: Kd means a measure of binding affinity in units of concentration. For orientation: koff means a measure of how fast the partners let go of each other. In general, kon refers to a measure of how fast the partners come together. A higher kon goes with faster complex formation. Turning to 4E10 (antibody), in experiment [1], the equilibrium dissociation constant (Kd) is 140 nM and 150 nM and 180 nM; the koff worked out at 0.001 s⁻¹; the kon was 6800 M⁻¹ s⁻¹ and 6600 M⁻¹ s⁻¹ and 5500 M⁻¹ s⁻¹. In experiment [2], this substance yielded a Kd of 1380 nM, an off-rate constant (koff) of 0.001 s⁻¹ and a kon of 720 M⁻¹ s⁻¹.
